Bridge positions count the residues as written; N and C are the ends. Square brackets hold non-standard residues; d marks the D form. Ends that are not written are not given here. Trp(1-Me) = Cn1cc(C[C@H](N)C(=O)O)c2ccccc21; NMeI = CC[C@H](C)[C@H](NC)C(=O)O; Orn = NCCC[C@H](N)C(=O)O; Sar = CNCC(=O)O
B1: Compstatin 30 (Cp30): Sar-Ile-[Cys-Val-Trp(Me)-Gln-Asp-Trp-Sar-Ala-His-Arg-Cys]-mIle-NH2 (peptide)
peptide: GICVWQDWGAHRCI
modifications: Sar (N-methyl-Gly) at Xaa0 (N-terminus); Trp(Me) at position 4; Sar at position 8; mIle at position 13; C-terminal -NH2; cyclic via Cys2-Cys12 disulfide (compstatin position numbering)
B2: Peptide 2: Gly-Ile-[Cys-Val-Trp(Me)-Gln-Asp-Trp-Sar-Ala-His-Arg-Cys]-mIle-NH2 (peptide)
peptide: GICV[Trp(1-Me)]QDW[Sar]AHRC[NMeI]-NH2
modifications: disulfide 3-13; N-terminus assumed
SMILES: CC[C@H](C)[C@H](NC(=O)CN)C(=O)N[C@H]1CSSC[C@@H](C(=O)N(C)[C@H](C(N)=O)[C@@H](C)CC)NC(=O)[C@H](CCCNC(=N)N)NC(=O)[C@H](Cc2c[nH]cn2)NC(=O)[C@H](C)NC(=O)CN(C)C(=O)[C@H](Cc2c[nH]c3ccccc23)NC(=O)[C@H](CC(=O)O)NC(=O)[C@H](CCC(N)=O)NC(=O)[C@H](Cc2cn(C)c3ccccc23)NC(=O)[C@H](C(C)C)NC1=O
B3: Peptide 1: Me-Ile-[Cys-Val-Trp(Me)-Gln-Asp-Trp-Sar-Ala-His-Arg-Cys]-mIle-NH2 (peptide)
peptide: Me-ICVWQDW[Sar]AHRC[NMeI]-NH2
modifications: disulfide 2-12; not fully specified (residue 4); printed as Me-Ile-[Cys-Val-Trp(Me)-Gln-Asp-Trp-Sar-Ala-His-Arg-Cys]-mIle-NH2
B4: Cp40 (6Asn) (peptide)
peptide: [dY]ICV[Trp(1-Me)]QNW[Sar]AHRC[NMeI]-NH2
modifications: disulfide 3-13; N-terminus assumed
SMILES: CC[C@H](C)[C@H](NC(=O)[C@H](N)Cc1ccc(O)cc1)C(=O)N[C@H]1CSSC[C@@H](C(=O)N(C)[C@H](C(N)=O)[C@@H](C)CC)NC(=O)[C@H](CCCNC(=N)N)NC(=O)[C@H](Cc2c[nH]cn2)NC(=O)[C@H](C)NC(=O)CN(C)C(=O)[C@H](Cc2c[nH]c3ccccc23)NC(=O)[C@H](CC(N)=O)NC(=O)[C@H](CCC(N)=O)NC(=O)[C@H](Cc2cn(C)c3ccccc23)NC(=O)[C@H](C(C)C)NC1=O

Molecular target: T1, C3 protein (target in the classical-pathway complement activation ELISA)
Assay: cell-based or functional assay

IC50, peptide concentration to reach 50% inhibition of classical pathway complement activation (ELISA) [µM]	Binder
0.132	Ac-ICV[Trp(1-Me)]QDWGAHRCT-NH2 (disulfide 2-12) [4(1MeW): Ac-Ile-[Cys-Val-Trp(Me)-Gln-Asp-Trp-Gly-Ala-His-Arg-Cys]-Thr-NH2]
0.082	B1
0.072	YICV[Trp(1-Me)]QDW[Sar]AHRC[NMeI]-NH2 (disulfide 3-13) [Peptide 4: Tyr-Ile-[Cys-Val-Trp(Me)-Gln-Asp-Trp-Sar-Ala-His-Arg-Cys]-mIle-NH2]
0.113	B2
0.18	B3

Molecular target: T1, C3 protein (target in the …)
Assay: cell-based or functional assay
Remark: another data set of the same source

IC50, peptide concentration to reach 50% inhibition of classical pathway complement activation [µM]	Binder
0.00026	B4
0.00022	[dY]ICV[Trp(1-Me)]QDW[Sar]AH[Orn]C[NMeI]-NH2 (disulfide 3-13) [Cp40 (11Orn)]
0.00036	[dY]ICV[Trp(1-Me)]QNW[Sar]AH[Orn]C[NMeI]-NH2 (disulfide 3-13) [Cp40 (11Orn 6Asn)]
